# Source: publication PMC5269733, “RNA helicase DDX3 maintains lipid homeostasis through upregulation of the microsomal triglyceride transfer protein by interacting with HNF4 and SHP” (Scientific Reports, 2017)
# T1: HA-tagged HNF4 (hepatocyte nuclear factor 4) (UniProt P41235 1-474)
# T1 sequence (looked up): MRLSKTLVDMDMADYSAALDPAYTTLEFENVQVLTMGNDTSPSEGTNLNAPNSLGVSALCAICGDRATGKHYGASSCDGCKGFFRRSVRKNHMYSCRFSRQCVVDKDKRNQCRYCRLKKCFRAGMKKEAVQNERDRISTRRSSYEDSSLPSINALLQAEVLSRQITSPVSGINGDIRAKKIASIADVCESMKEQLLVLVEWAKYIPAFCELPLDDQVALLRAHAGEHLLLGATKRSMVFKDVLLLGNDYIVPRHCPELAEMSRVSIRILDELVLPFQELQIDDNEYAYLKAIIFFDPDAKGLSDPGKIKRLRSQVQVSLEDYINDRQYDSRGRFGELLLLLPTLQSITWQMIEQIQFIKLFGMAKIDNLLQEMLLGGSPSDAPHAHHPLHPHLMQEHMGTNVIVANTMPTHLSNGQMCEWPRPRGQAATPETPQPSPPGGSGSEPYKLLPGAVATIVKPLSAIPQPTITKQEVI
# B1: HA-tagged DDX3 (natural protein, UniProt O00571 1-662, looked up)
# chain: MSHVAVENALGLDQQFAGLDLNSSDNQSGGSTASKGRYIPPHLRNREATKGFYDKDSSGWSSSKDKDAYSSFGSRSDSRGKSSFFSDRGSGSRGRFDDRGRSDYDGIGSRGDRSGFGKFERGGNSRWCDKSDEDDWSKPLPPSERLEQELFSGGNTGINFEKYDDIPVEATGNNCPPHIESFSDVEMGEIIMGNIELTRYTRPTPVQKHAIPIIKEKRDLMACAQTGSGKTAAFLLPILSQIYSDGPGEALRAMKENGRYGRRKQYPISLVLAPTRELAVQIYEEARKFSYRSRVRPCVVYGGADIGQQIRDLERGCHLLVATPGRLVDMMERGKIGLDFCKYLVLDEADRMLDMGFEPQIRRIVEQDTMPPKGVRHTMMFSATFPKEIQMLARDFLDEYIFLAVGRVGSTSENITQKVVWVEESDKRSFLLDLLNATGKDSLTLVFVETKKGADSLEDFLYHEGYACTSIHGDRSQRDREEALHQFRSGKSPILVATAVAARGLDISNVKHVINFDLPSDIEEYVHRIGRTGRVGNLGLATSFFNERNINITKDLLDLLVEAKQEVPSWLENMAYEHHYKGSSRGRSKSSRFSGGFGARDYRQSSGASSSSFSSSRASSSRSGGGGHGSSRGFGGGGYGGFYNSDGYGGNYNSQGVDWWGN
# Biological target: T1, HA-tagged HNF4 (hepatocyte nuclear …)
# Experiment: cell-based or functional assay
binder,measurement,value
B1,"luciferase activity of pGL2/MTP-Luc(-611/+87) in HuH7 cells, HA-HNF4 with increasing HA-DDX3 against HA-HNF4 alone (2.4- to 8.9-fold, DDX3 dose-dependent)",8.9 fold
